The data set is described as follows: yeast display, Sf9 membrane polyspecificity reagent, FACS + sequencing; frameworks hold sequencing errors. In outline:
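Sorting gates, low and high (top ~1%), were placed on anti-HA fluorescence to track expression and on streptavidin fluorescence to track reagent binding. A clone's polyreactivity label is taken from the gate it came out of. The reagent was 10% biotinylated, detergent-solubilized Sf9 membrane, applied for 1 hour at 4 °C to galactose-induced yeast display cells.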
On to “QVQLVESGGGLVQAGGSLRLSCAASGYTFTIYAMGWYRQAPGKERELVAAITGGGGRTYYADSVKGRFTISRDNAKNTVYLQMNSLKPEDTAVYYCAASGPIVGMNYWGQGTQVTVSS”, for which the “polyreactivity (PSR sort gate)” value is on record as “high polyreactivity”.
In the case of “QVQLVESGGGLVQAGGSLRLSCAASGRTFVHYTMGWYRQAPGKERELVAAISGTGTSTYYADSVKGRFTISRDNAKNTVYLQMNSLKPEDTAVYYCARDPFFGFHIGYPRRDYWGQGTQVTVSS”, the “polyreactivity (PSR sort gate)” value is given as “low polyreactivity”.
Take “QVQLVESGGGLVQAGGSLRLSCAASGRTFTQYAMGWYRQAPGKERELVARISYSGGTTYYADSVKGRFTISRDNAKNTVYLQMNSLKPEDTAVYYCARDYYGSVRFDHWGQGTQVTVSS”: the “polyreactivity (PSR sort gate)” value is listed as “high polyreactivity”.
With “QVQLVESGGGLVQAGGSLRLSCAASGRIFAQYAMGWYRQAPGKDRELVADISSGVRTYADSVKGRFTISRDNAKNTVYLQMNSLKPEDTAVYYCNAYYIIFTRNDYWGQGTQVNVSS”, the “polyreactivity (PSR sort gate)” value was “low polyreactivity”.
“QVQLVESGGGLVQAGGSLRLSCAASGSIFYGYAMGWFRQAPGKEREFVADITSSGVSTYYADSVKGRFTISRDNAKNSVYLQINSLKPEDTAVYYCAKLRRYYSSVYHKFVFYTDDYWGQGSQVTVSS”: the “polyreactivity (PSR sort gate)” value is on record as “high polyreactivity”.
Take “QVQLVESVGGLVQAGGSLRLSCAASGSTSRFYDMGSYSQAPGKERELVAAITQSGGSTRYADSVKGRFTISRENAKNTVYLQLNSLKPEDTAVNYCAARVRGYSVTRTKPASIGGGSWGQGTQVTVSS”: the “polyreactivity (PSR sort gate)” value is reported as “high polyreactivity”.
In the case of “QVQLVESGGGLVQAGGSLRLSCASSGITFGVYAMGWYRQAPGKERELVAAISRRGAYTYYADSVKGRFTISRDNGKNTVYLQMNSLKPEDTAVYYCAAYLARRQYDYWGQGTQVTVSS”, the “polyreactivity (PSR sort gate)” value is reported as “high polyreactivity”.
Turning to “QVQLVESGGGLVQAGGSLRLSCAASGSNFVGYAMGWYRQAPGKERELVAGITASGTNTYYADSVKGRFTISRDNAKNTVYLQMNSLKPEDTAVYYCAAESNRRFEGEYWGQGTQVTVSS”, the “polyreactivity (PSR sort gate)” value is on record as “high polyreactivity”.
For “QVQLVESGGGLVQAGGSLRLSCAASGSIFPRYAMGWYRQAPGKERELVAAINSGGSTNYADSVKGRFTISRDNAKNTVYLQMHSLKPEDTAVYYCNAVFISYSYRRGPTLYVYWGQGTQVTVSS”, the “polyreactivity (PSR sort gate)” value is “high polyreactivity”.
As to “QVQLVESGGGIVQAGGSLRFSCAASGGTFYRYAMGWYRLAPGNERELVAAISSSGGSTYYAVSVKGRFTISRDNAKNTVYLQMNSLKPEDTAVYYCAAYSFQSHNFDYWGQGSQVTVSS”, the “polyreactivity (PSR sort gate)” value was “high polyreactivity”.
On to “QVQLVESGGGLVQAGGSLRLSCSASGRIFRFYGMGWYRQAPGKDRELVAAISSRGGSTYYADSVKGRFTISRDNAKNTVYLQMNSLKPEDSGVYYCAASGAFWYPYDYWGQGTQVTVSS”, for which the “polyreactivity (PSR sort gate)” value is given as “high polyreactivity”.
Next, “QVQLVESGGGLVQAGGSLRLSCAASGSTFVGYAMGWYRQAPGKEREVVAAISGSGTSTYYADSVKGRFTISRDNAKNTVYLQMNSLKPEDTAVYYCNSDPIFVYSSYNYWGQGTQVTVSS”: “low polyreactivity”; “QVQLHESGGGLVQAGGSLRLSCAASGTISYAGPMGWYRQAPGKEREFVAAIGVGSNTNYADSVKGRYTIIRDNAKNTVYLQMNSLKPEDTAVYYCAVGGYAPLGRPYWCQGTQVTVSS”: “low polyreactivity”.
Next, “QVQLVESGGGLVQAGGSLRLSCAASGLTLAPNAMGWYRQAPGKERELVAAITRSGGDTYYADSVKGRFTISRDNAKNTVYLQMNSLKPEDTAVYYCAADYWFRYGTYEYWGQGTQVTVSS”: “high polyreactivity”; “QVQLVESGGGLVQAGGSLRLSCAASGSIFTLYAMGWYRQAPGKERELVAAINRSGGSTYYADSVKGRFTISRDNAKNTVYLQMNSVKPEATAVYYCNARQYTGRRYDYWGQGTQVTVSS”: “high polyreactivity”.
In the case of “QVQIVESGGGLVQAGGSLRLSCAASGFIFWDYAMGWYRQAPGKERELVAAISDSGGDTYYADSVKGRFTISRDNAKNTVYLQMNSLKPEDTAVYYCAADVELWVFRGQQYDYWGQGTQVTVSS” it was “low polyreactivity”.

The record behind these values is the nanobody polyreactivity screen of Harvey et al. (2022).
